Measurements reported in US20220401560A1, “PEPTIDE ENCAPSULATING FERRITIN” (Ajinomoto Co., Inc., priority 2019, published 2022).
No end group written: not given here.

Assays:
ferritin (FTH) = target: T1, ferritin (FTH) (Homo sapiens, UniProt P02794); experiment: Search for peptides capable of being encapsulated into ferritin by disassembly/reassembly process, LC-MS detection; conditions: encapsulation into ferritin (FTH); three trials
T1 construct: made in house; host or cells: Escherichia coli BL21 (DE3), plasmid pET20-FTH
T1 sequence (P02794 whole entry): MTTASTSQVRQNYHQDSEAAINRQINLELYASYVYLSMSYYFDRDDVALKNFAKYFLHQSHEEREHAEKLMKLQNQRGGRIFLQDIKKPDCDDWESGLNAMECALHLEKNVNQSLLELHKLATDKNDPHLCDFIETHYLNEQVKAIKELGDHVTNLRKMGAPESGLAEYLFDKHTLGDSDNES
Experimental: Peptides capable of being encapsulated into ferritin by disassembly/reassembly process were searched. In the disassembly/reassembly process, 1 mL of a 50 mM glycine hydrochloride buffer (pH 2.3) containing FTH at a final concentration of 5 mg/mL and the peptide at a final concentration of 0.5 mM, was left to stand at room temperature for 15 minutes. Next, 310 μL of a 1 M Tris hydrochloride buffer (pH 9.0) was added for neutralization, and left to stand at room temperature for 3 hours. After the standing, 1.2 mL of a 50 mM Tris hydrochloride buffer (pH 8.0) was added, and centrifuged (at 15,000 rpm for one minute). Thereafter, 2.5 mL of its supernatant was injected into a desalting column PD-10 (Sephadex G-25 filled product, GE Healthcare Inc.) equilibrated with a 50 mM Tris hydrochloride buffer (pH 8) for the elusion with 3.0 mL of a 50 mM Tris hydrochloride buffer (pH 8.0) to separate non-encapsulated peptides and ferritin. A whole amount (3.0 mL) of the resulting solution was concentrated to 0.1 mL by centrifugal ultrafiltration using Vivaspin 20-100K (GE Healthcare Inc.). The operation of adding 10 mL of a 50 mM Tris hydrochloride buffer to the concentrated solution and then concentrating was repeated twice to remove peptides that were not removed by PD-10 to obtain 0.1 mL of a sample solution. For the LC-MS analysis, 50 p1 of a 1 M glycine hydrochloride buffer (pH 2.3) was added to 50 μL of the sample solution and then the resulting solution was left to stand at room temperature for 15 minutes. To the solution, 900 μL of ethanol was added. Next, the resulting solution was stirred vigorously and then centrifuged (at 15,000 rpm for five minutes) for collection of the supernatant. The supernatant was analyzed using LCMS-2020 (Shimadzu Corporation) as LC-MS, Inertsil (Registered trademark) as a column, ODS-3, particle diameter of 2 μm and 2.1 mm×50 mm (GL science). Thereafter, 10 μL of the sample injected into the column was eluded at a flow rate of 0.2 mL/min for 10 minutes such that a mixing ratio of a solution A (0.1% formic acid/99.9% acetonitrile) and a solution B (50% water/50% acetonitrile) is from 95:5 to 95:5.
The encapsulation of the peptide into ferritin was studied by comparing in terms of the amount of the peptide detected by LC/MS between the sample prepared by encapsulating the peptide into ferritin at the disassembly/reassembly process and the sample prepared simply by mixing ferritin with the peptide. For example, ClAc-FHC was eluted at a retention time of 0.8 minute. […] However, the peak was not observed for the sample prepared by simply mixing the peptide with ferritin without performing the disassembly/reassembly process (FIG. 12B). FIG. 13 to FIG. 17 illustrate LC-MS results for FTH in which the peptide was encapsulated at the disassembly/reassembly process.

SKBR-3 cell = experiment: Cell incorporation test by FACS in SKBR-3 cell; assay type: cell-based, human; conditions: 24 hours, FTH 100, 200 and 400 nM, or peptide without FTH encapsulation at the same peptide concentrations
Experimental: A human breast cancer derived SKBR-3 cell (20,000 cell/well, 96-well plate) was added to 100 μL media that were produced by adding the PKC-F encapsulating FTH to evaluation media (Opti-MEM™ (Thermo Fisher Scientific Inc.)+1% non-essential amino acid solution (Thermo Fisher Scientific Inc.)+1% penicillin—streptomycin (Nacalai Tesque, Inc.)) at final concentrations of 100 nM (PKC-F concentration 0.86 μM), 200 nM (PKC-F concentration 1.72 μM) and 400 nM (PKC-F concentration 3.44 μM), respectively, and then cultured at 37° C. The transferrin receptor TfR was expressed in the SKBR-3 cell. […] After that 100 μL of an Opti-MEM™ medium was added, and the cells were transferred to a plate for fluorescence-activated cell sorting (FACS), and then subjected to centrifugal separation at 400×g for 5 minutes. The cells for each were suspended in a FACS buffer (Attune™ Focusing Fluid, Thermo Fisher Scientific Inc.), and analyzed by FACS (Attune NxT, Thermo Fisher Scientific Inc.).
The cell incorporation of the obtained FAM-SV40 encapsulating FTH was evaluated. […]
After 100 μL of the Opti-MEM™ medium was added, the cells were transferred to the plate for fluorescence-activated cell sorting (FACS), and then subjected to centrifugal separation at 400×g for 5 minutes. […]

With “5(6)-FAM-CGGPKKKRKVG (SEQ ID NO: 10) ({5(6)‑FAM}-CGGPKKKRKVG) [FAM-SV40, fluorescent dye-modified peptide, linear]” the encapsulation (ferritin (FTH)) was “A (“A” represents peptides with three times of confirmation of encapsulation.)” and the “fluorescence intensity of cells by FACS” value (SKBR-3 cell) was “not observed”.
